In patent publication US20060183688A1 (LES LABORATORIES SERVIER, published 2006):
No end group written: not given here. fluorescein = fluorescein label at the N-terminal end

How the values were obtained:
[1] = biological target: T1, fusion protein glutathione-S-transferase-Bcl-XL (UniProt P08515 1-218 = GST; Q07817 1-209); experiment: fluorescence polarisation, 15 nM fluorescein-peptide, GST-Bcl-XL titrated 1 nM to 5 uM
T1 construct: also called GST-Bcl-XL
Method: (§1) A 15 nM solution of the peptide obtained in Example 1 labelled with fluorescein at the N-terminal end is mixed with a solution containing the fusion protein GST-Bcl-XL or GST-Bcl-W at a concentration varying from 1 nM to 5 μM in a buffer containing Na₂HPO₄ 20 mM pH 7.4, EDTA 1 mM, NaCl 50 mM, pluronic acid F-68 0.05%. The fluorescence polarisation is then measured by the En Vision apparatus (Packard Perkin-Elmer).

[2] = biological target: T2, fusion protein glutathione-S-transferase-Bcl-W (UniProt P08515 1-218 = GST; Q92843 1-171); experiment: fluorescence polarisation, 15 nM fluorescein-peptide, GST-Bcl-W titrated 1 nM to 5 uM
T2 construct: also called GST-Bcl-W
T2 sequence (P08515 1-218, tags or fused parts left off): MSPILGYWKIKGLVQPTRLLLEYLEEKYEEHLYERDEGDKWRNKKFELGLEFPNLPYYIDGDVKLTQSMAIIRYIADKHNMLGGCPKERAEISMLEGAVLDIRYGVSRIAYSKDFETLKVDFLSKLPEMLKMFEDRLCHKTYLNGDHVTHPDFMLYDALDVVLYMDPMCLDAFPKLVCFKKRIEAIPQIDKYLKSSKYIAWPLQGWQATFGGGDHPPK
Method: as §1

T1 sequence (P08515 1-218, tags or fused parts left off): as above

B1: peptide obtained in Example 1 labelled with fluorescein at the N-terminal end (peptide)
peptide: fluorescein-DTRRSMVFARHLREVGDEFRSR
notes: Used at 15 nM in fluorescence polarisation; also called ID; NO.1
[1]
  Kd: 215 nM
[2]
  Kd: 411 nM
